The text below walks through data of US12007398.

Experiment [1] addresses T1, CD3e subunit of the T cell receptor on human T cells (human, UniProt P07766 23-207). As to the kind of experiment: cell-based or functional assay.
Experiment [2] concerns the target T1, CD3e subunit of the T cell receptor on …. As to the kind of experiment: cell-based or functional assay. This is another data set of the same source.

T1 sequence (P07766 23-207): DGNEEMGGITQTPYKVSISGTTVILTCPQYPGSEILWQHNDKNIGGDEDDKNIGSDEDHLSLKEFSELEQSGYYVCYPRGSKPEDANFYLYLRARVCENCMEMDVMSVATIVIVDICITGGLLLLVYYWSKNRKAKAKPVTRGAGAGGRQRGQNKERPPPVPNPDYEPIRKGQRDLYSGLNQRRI

B1: purified anti-CD3 homodimer (product-related impurity isolated from the αCD20/αCD3 TDB purification process) (antibody, V domains shown)
VH: EVQLVQSGAEVKKPGASVKVSCKASGYTFTNYYIHWVRQAPGQGLEWIGWIYPGDGNTKYNEKFKGRATLTADTSTSTAYLELSSLRSEDTAVYYCARDSYSNYYFDYWGQGTLVTVSS
VL: DIVMTQSPDSLAVSLGERATINCKSSQSLLNSRTRKNYLAWYQQKPGQPPKLLIYWASTRESGVPDRFSGSGSGTDFTLTISSLQAEDVAVYYCTQSFILRTFGQGTKVEIK
With B1, in experiment [1], the “EC50 of NFκB-luciferase reporter activation, Jurkat/NFκBLuc cells; in absence of target cells” value stood at 0.21 µg/mL; the “EC50 of T cell activation (CD69+/CD25+), human PBMC Donor 1; column head: in absence of target cells” value is 0.526 µg/mL; the “EC50 of T cell activation (CD69+/CD25+), human PBMC Donor 2; column head: in absence of target cells” value was 0.169 µg/mL.

B2: αCD20/αCD3 TDB (T cell dependent bispecific antibody; anti-CD20 Mab2 / anti-CD3 Mab1) (bispecific antibody, V domains shown)
VH 1: EVQLVESGGGLVQPGGSLRLSCAASGYTFTSYNMHWVRQAPGKGLEWVGAIYPGNGDTSYNQKFKGRFTISVDKSKNTLYLQMNSLRAEDTAVYYCARVVYYSNSYWYFDVWGQGTLVTVSS
VL 1: DIQMTQSPSSLSASVGDRVTITCRASSSVSYMHWYQQKPGKAPKPLIYAPSNLASGVPSRFSGSGSGTDFTLTISSLQPEDFATYYCQQWSFNPPTFGQGTKVEIKR
VH 2: EVQLVQSGAEVKKPGASVKVSCKASGYTFTNYYIHWVRQAPGQGLEWIGWIYPGDGNTKYNEKFKGRATLTADTSTSTAYLELSSLRSEDTAVYYCARDSYSNYYFDYWGQGTLVTVSS
VL 2: DIVMTQSPDSLAVSLGERATINCKSSQSLLNSRTRKNYLAWYQQKPGQPPKLLIYWASTRESGVPDRFSGSGSGTDFTLTISSLQAEDVAVYYCTQSFILRTFGQGTKVEIK
In the case of B2, the “luciferase activity of Jurkat/NFκBLuciferase clone 2 in the presence of a CD20 expressing target cell line, relative to anti-CD3 homodimer” value in experiment [2] turned out to be 1000 fold. For the same molecule, in experiment [1], the “EC50 of NFκB-luciferase reporter activation, Jurkat/NFκBLuc cells; in presence of target cells” value is 0.0013 µg/mL; the “EC50 of T cell activation (CD69+/CD25+), human PBMC Donor 1; in presence of target cells” value came to 0.0055 µg/mL; the “EC50 of T cell activation (CD69+/CD25+), human PBMC Donor 2; in presence of target cells” value was 0.0044 µg/mL.
